Substitutions are numbered along the chain they refer to.

This assay has as its target T1, canine CD20 on cells (HEK293, MDCK II, CLBL-1 or native B cells) (canine, UniProt Q3C2E2 1-297).
T1 construct: also called dCD20; cCD20
T1 chain: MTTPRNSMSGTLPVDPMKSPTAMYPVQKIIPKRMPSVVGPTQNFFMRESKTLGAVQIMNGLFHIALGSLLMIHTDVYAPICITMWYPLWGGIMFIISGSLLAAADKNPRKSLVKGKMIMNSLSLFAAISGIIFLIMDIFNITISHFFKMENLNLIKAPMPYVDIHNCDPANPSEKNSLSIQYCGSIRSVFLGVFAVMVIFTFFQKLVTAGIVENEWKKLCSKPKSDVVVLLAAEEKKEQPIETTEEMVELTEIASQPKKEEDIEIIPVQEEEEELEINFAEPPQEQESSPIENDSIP
Put plainly: flow cytometry, canine CD20 HEK293 cells, 10 µg/ml, FITC anti-canine IgG. The procedure:
A CD20 binding screen was performed on candidate proteins produced from the canine CD20 immunisation as described in Examples 2 and 3. CHO cells supernatants containing candidate antibodies were diluted to 10 μg/ml in FACS buffer (PBS containing 3% FBS) and screened for their ability to bind canine CD20 expressed on cell surface. In brief, 1-2×10⁵ canine CD20-expressing HEK cells were incubated with candidate mAbs for one hour at 4° C., at a fixed concentration of 10 μg/ml followed by incubation with 5 μg/ml of FITC-conjugated anti-canine IgG secondary antibody (Bethyl Laboratories) for 1 hour at 4° C. Cells incubated with anti-canine IgG FITC secondary antibody and without primary anti-canine CD20 antibody, or with isotype control primary antibody, were used as negative controls. The data were acquired on either a Beckman Coulter CytoFLEX or a BD Accuri C6 Plus flow cytometer and analysed using FlowJo software.
On the technique in general: In flow cytometry, cells or beads pass a laser one at a time.

B1: PMX246 (monospecific anti-canine CD20, canine IgG-B, lambda C5) (antibody, V domains shown)
VH: EMQLVESGGDLVKPGGSLRLSCVASGFTFSRYHMSWVRQAPGKGLQWVAYINSGGSPTNYADAVKGRFTISRDNAKNTLYLQMNSLRAEDTAVYYCTTYDQWGQGTLVTVSS
VL: SYVLTQLPSKSVTLKQPAHITCGGDNIGSKSVHWYQQKLGQAPVLIIYYDSSRPTGIPERFSGANSGNTATLTISGALAEDEADYYCQVWDTSANVFGGGTHLTVLG
Turning to B1, the binding result is listed as “binds”.

B2: PMX263 (monospecific anti-canine CD20, canine IgG-B, lambda C5) (antibody, V domains shown)
VH: B1 VH with M2V, H33Y, S35N, P57S, N59S, E89D, T98S, Y99F, Q101Y
VL: B1 VL with S11N, T92S
Turning to B2, the binding result was “binds”.

B3: PMX247 (monospecific anti-canine CD20, canine IgG-B, lambda C5) (antibody, V domains shown)
VH: B1 VH with M2V, T58S, N59S, T98S, Y99F, Q101C
VL: B1 VL with S11N, S52R, T92S
Consider B3, for which the binding result is reported as “binds”.

B4: PMX252 (monospecific anti-canine CD20, canine IgG-B, lambda C5) (antibody, V domains shown)
VH: B1 VH with M2V, P57S, N59S, T97A, T98S, Y99L, Q101Y
VL: B1 VL with S11N, T92I
Regarding B4, the binding result is “binds”.

B5: PMX261 (monospecific anti-canine CD20, canine IgG-B, lambda C5) (antibody, V domains shown)
VH: EVQLVESGGDLVKPGGSLRLSCVASGITFSRYYMNWVRQAPGKGLQWVAYIDSGGSPTTYADAVKGRFTISRDNAKKALYLQMNSLRAEDTAVYYCTSFDYWGQGTLVTVSS
VL: B1 VL with S11N, Y86F, T92S
B5: the binding result is reported as “binds”.

B6: PMX262 (monospecific anti-canine CD20, canine IgG-B, lambda C5) (antibody, V domains shown)
VH: B5 VH with D52N, K77N, A78T
VL: B1 VL with S11N, V44I, S51T, T92S
Take B6: the binding result is reported as “binds”.

B7: PMX249 (monospecific anti-canine CD20, canine IgG-B, lambda C5) (antibody, V domains shown)
VH: B1 VH with M2V, P57S, N59S, T97A, T98S, Y99F, Q101Y
VL: B1 VL with S1P, S11N, S52R, T92S
For B7, the binding result is recorded as “binds”.

B8: PMX253 (monospecific anti-canine CD20, canine IgG-B, lambda C5) (antibody, V domains shown)
VH: B5 VH with L4M, I27F, D52N, S56G, P57S, T59S, K77N, A78T, T97S
VL: B1 VL with S11N, T92S
Consider B8, for which the binding result is given as “binds”.

B9: PMX258 (monospecific anti-canine CD20, canine IgG-B, lambda C5) (antibody, V domains shown)
VH: B5 VH with I27L, D52N, S53T, P57S, T59S, K77N, A78T, T97A
VL: B1 VL with S11N, T92S
For the molecule B9, the binding result is recorded as “binds”.

B10: PMX264 (monospecific anti-canine CD20, canine IgG-B, lambda C5) (antibody, V domains shown)
VH: B1 VH with M2V, Y50F, S53T, G55R, S56M, P57S, T98S, Y99L, Q101Y
VL: B1 VL with S11N, T92S
For B10, the binding result is given as “binds”.

B11: PMX260 (monospecific anti-canine CD20, canine IgG-B, lambda C5) (antibody, V domains shown)
VH: B1 VH with M2V, S30R, N52D, P57G, N59S, T97S, T98S, Y99L, Q101Y
VL: B1 VL with S11N, S52R, T92S, A94G
For the molecule B11, the binding result was “binds”.

B12: PMX257 (monospecific anti-canine CD20, canine IgG-B, lambda C5) (antibody, V domains shown)
VH: B1 VH with M2V, R31S, P57S, N59S, K76Y, N77S, Y80F, S85N, Y99L, Q101S
VL: B1 VL with S11N, T92S
B12: the binding result is reported as “binds”.

B13: PMX248 (monospecific anti-canine CD20, canine IgG-B, lambda C5) (antibody, V domains shown)
VH: B1 VH with M2V, P57T, N59S, V93I, Y95F, T98S, Y99L, Q101Y
VL: B1 VL with S11N, V44I, S52R, T92S
B13: the binding result was “binds”.

B14: PMX266 (monospecific anti-canine CD20, canine IgG-B, lambda C5) (antibody, V domains shown)
VH: B1 VH with M2L, P57S, N59S, Y99F, Q101S
VL: B1 VL with S11N, T92I
Turning to B14, the binding result was “binds”.

B15: PMX259 (monospecific anti-canine CD20, canine IgG-B, lambda C5) (antibody, V domains shown)
VH: B1 VH with M2V, P57S, N59S, T97A, T98S, Y99F, Q101Y
VL: B1 VL with S11N, S52N, T92S, A94G
Turning to B15, the binding result is “binds”.

B16: PMX256 (monospecific anti-canine CD20, canine IgG-B, lambda C5) (antibody, V domains shown)
VH: B1 VH with M2V, R31S, P57S, N59S, L81F, Y99F, Q101S
VL: B1 VL with S11N, T92S
With B16, the binding result is listed as “binds”.

Values taken from patent US20240209086A1 (PETMEDIX, published 2024).
